Results on one molecule are retold here after patent US20030125515A1 (published 2003).

The target in experiment [1] is gp41 of HIV HXB2 (from the HXB2 gp160 gene, on pseudotyped virus) (HIV-1 HXB2, UniProt P04578 33-856). The experiment in a line: cell-based or functional assay.
Experiment [2] has as its target gp41 of HIV JRFL (from the JRFL gp160 gene, on pseudotyped virus) (HIV-1 JRFL). The experiment is described as follows: cell-based or functional assay.

B1: end-locked five-helix protein having SEQ ID NO.: 2 (designed binder)
chain: MCGGGSQLLSGIVQQQNNLLRAIEAQQHLLQLTVWGIKQLQASGGSGGSWMEWDREINNYTSLIHSLIEESQNQQEKNEQELLSGGCGGSQLLSGIVQQQNNLLRAIEAQQHLLQLTVWGIKQLQASGGCGGSWMEWDREINNYTSLIHSLIEESQNQQEKNEQELLSGGSGGSQLLSGIVQQQNNLLRAIEAQQHLLQLTVWGIKQLQASGGGC
modifications: disulfide bond between the cysteine of the N-terminal linker and the cysteine of inside linker 2; disulfide bond between the cysteine of the C-terminal linker and the cysteine of inside linker 3 (as in FIG. 3b)
Take B1: the “EC50 in the virus-cell fusion assay (HIV luciferase assay, HOS-CD4 cells)” value in experiment [1] is 15 nM. In addition, the “EC50 in the virus-cell fusion assay (HIV luciferase assay, HOS-CD4-CCR5 cells)” value in experiment [2] was determined as 0.75 nM.
